Reference: patent US20250320478

Assays:
Experiment in all cases: cell_activity
[1] = tested on: ZFP3:G:D3A (synthetic construct); settings: triple combination with ZFP8:G:K and ZFP6:G:hD3L; not tested alone
[2] = tested on: ZFP6:G:hD3L (synthetic construct); settings: triple combination with ZFP8:G:K and ZFP3:G:D3A; not tested alone
[3] = tested on: ZFP8 (Pcsk9 ZFP, KRAB/DNMT3 effector fusions) (synthetic construct); settings: upper end of 1.5-17 range for bi-partite ZFP8 ETRs in Hepa 1-6 Pcsk9tdTomato; tri-partite 2-8 fold; binding inferred from silencing

Sequence of ZFP6:G:hD3L (synthetic construct) (chain, as listed by the source): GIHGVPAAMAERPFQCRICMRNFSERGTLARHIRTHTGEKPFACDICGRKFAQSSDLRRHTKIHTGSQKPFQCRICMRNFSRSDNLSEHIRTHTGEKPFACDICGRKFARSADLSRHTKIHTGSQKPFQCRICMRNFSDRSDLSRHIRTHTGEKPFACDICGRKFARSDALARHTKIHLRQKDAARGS
Sequence of ZFP3:G:D3A (synthetic construct) (chain, as listed by the source): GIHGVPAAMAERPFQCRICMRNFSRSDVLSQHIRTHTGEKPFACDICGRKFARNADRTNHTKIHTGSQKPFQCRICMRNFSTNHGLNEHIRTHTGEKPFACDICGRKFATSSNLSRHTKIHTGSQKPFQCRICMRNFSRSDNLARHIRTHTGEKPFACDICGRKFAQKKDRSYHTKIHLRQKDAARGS

For “Pcsk9 promoter CpG island, ZFP3 target site”, the activity (fold silencing vs ZFPoff) [1] was 15.

Work on “Pcsk9 promoter CpG island, ZFP6 target site” yielded an activity (fold silencing vs ZFPoff) [2] of 15.

For “Pcsk9 promoter CpG island, ZFP8 target site”, the activity (fold silencing vs ZFPoff) [3] was 17.
